Five substances from PMC11255866 can be followed below.

Common to all, as to experiment: fluorescence polarisation
The target of assay [1] is U1‐70K BAD1 255–278 (human) (UniProt P08621).
For assay [2], the target named is SRSF1 RRM1 (residues 14–90), Alexa Fluor 488 labelled (human) (UniProt Q07955).
Assay [3] shares this target. The source holds these as a separate data set.
The target in assay [4] is Hyper‐phosphorylated SRSF1 (phosphorylated by Clk1), Alexa Fluor 488 labelled at T248C (human) (UniProt Q07955).
Chain of Hyper‐phosphorylated SRSF1 (phosphorylated by Clk1), Alexa Fluor 488 labelled at T248C (human) (Q07955 whole entry T248C): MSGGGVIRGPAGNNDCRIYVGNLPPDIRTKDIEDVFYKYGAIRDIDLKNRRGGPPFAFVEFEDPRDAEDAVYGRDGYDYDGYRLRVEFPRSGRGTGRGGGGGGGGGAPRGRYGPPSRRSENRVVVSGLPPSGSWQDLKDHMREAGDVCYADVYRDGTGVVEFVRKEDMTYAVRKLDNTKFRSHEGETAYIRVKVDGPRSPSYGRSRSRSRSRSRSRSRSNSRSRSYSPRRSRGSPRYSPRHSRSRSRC

Where two headings read alike, the source gives them in different places.

Chain of U1‐70K RRM (residues 64–202) (P08621 64-202): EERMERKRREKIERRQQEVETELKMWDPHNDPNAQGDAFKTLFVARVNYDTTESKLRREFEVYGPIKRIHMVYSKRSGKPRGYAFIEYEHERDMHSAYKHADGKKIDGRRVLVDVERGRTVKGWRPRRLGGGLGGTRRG
Chain of U1‐70K RRM 92–202 (P08621 92-202): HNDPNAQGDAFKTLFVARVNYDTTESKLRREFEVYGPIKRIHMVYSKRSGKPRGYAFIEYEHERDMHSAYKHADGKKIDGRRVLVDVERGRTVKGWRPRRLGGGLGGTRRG
Chain of U1‐70K BAD1 (residues 229–306) (P08621 229-306): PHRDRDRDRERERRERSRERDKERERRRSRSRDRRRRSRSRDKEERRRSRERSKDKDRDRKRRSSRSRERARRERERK
Chain of Hyper phosphorylated SRSF1 RS (residues 199–248), unlabelled (Q07955 199-248): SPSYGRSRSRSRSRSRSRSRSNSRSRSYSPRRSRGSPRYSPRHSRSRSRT

Regarding “Hyper phosphorylated SRSF1 RS (residues 199–248), unlabelled (from UniProt Q07955 199-248) (domain or fragment)”, in assay [1], the Kd is 2000 nM.

In turn, “U1‐70K BAD1 (residues 229–306) (from UniProt P08621 229-306) (domain or fragment)” showed a dissociation constant (Kd) in assay [2] of 240 nM.

In the case of “U1‐70K RRM 92–202 (from UniProt P08621 92-202) (domain or fragment)”, the Kd in assay [3] came to 7000 nM.

On to “U1‐70K RRM (residues 64–202) (from UniProt P08621 64-202) (domain or fragment)”, for which the Kd in assay [2] is 3000 nM; in assay [3], 6000 nM.

For U1‐70K ΔBAD2 (domain or fragment), the Kd in assay [4] turned out to be 650 nM.
